This note sets out measurements from patent US20250188166A1 (BRIGHT PEAK THERAPEUTICS, published 2025).

The test concerns the target T1, IL-18R on HEK-Blue IL18R reporter cells (UniProt Q13478 19-541; O95256 20-599).
T1 sequence (looked up) 1: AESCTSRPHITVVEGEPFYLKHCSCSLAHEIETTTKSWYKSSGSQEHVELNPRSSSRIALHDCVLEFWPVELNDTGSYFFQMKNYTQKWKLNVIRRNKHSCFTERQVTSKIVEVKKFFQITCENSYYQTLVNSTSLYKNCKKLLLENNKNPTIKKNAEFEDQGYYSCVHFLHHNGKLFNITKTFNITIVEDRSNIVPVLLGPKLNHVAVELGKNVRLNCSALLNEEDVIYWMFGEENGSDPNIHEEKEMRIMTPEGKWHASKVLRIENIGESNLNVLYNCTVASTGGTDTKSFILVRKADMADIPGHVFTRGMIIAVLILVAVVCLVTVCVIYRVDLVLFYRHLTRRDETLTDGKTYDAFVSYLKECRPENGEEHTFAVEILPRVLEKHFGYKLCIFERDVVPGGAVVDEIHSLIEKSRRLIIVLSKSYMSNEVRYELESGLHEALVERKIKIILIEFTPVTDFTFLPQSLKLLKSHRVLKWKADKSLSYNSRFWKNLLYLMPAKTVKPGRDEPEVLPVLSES
T1 sequence (looked up) 2: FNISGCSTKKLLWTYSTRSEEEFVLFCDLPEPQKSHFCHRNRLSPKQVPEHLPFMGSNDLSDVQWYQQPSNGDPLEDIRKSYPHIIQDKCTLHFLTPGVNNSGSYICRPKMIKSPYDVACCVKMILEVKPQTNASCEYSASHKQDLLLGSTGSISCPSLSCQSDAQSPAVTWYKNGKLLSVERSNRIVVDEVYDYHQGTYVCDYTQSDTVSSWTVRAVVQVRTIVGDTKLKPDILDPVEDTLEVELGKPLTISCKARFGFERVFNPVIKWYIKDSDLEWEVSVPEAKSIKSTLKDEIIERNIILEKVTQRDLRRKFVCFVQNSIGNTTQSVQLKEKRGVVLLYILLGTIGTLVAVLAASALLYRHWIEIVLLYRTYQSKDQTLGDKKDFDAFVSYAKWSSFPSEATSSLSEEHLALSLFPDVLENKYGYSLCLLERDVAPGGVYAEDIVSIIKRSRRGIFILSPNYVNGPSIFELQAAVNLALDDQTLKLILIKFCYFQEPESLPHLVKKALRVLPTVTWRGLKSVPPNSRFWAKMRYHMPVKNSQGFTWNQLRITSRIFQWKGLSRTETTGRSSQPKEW
As to the kind of experiment: cell-based or functional assay.

Several values for one entry are separate records, joined by “and”; a condition that tells them apart may be missing. Equal values may be shown once.

B1: IL-18 polypeptide C163 (ligand)
chain: YFGKLESKLSIIRNLNDQVLFIDQGNRPLFEDMTDSDARDNAPRTIFIISMYKDSQPRGMAVTISVKCEKISTLSAENKIISFKEMNPPDNIKDTKSDIIFFKRSVPGHDNKMQFESSSYEGYFLAAEKERDLFKLILKKEDELGDRSIMFTVQNED
On to B1, for which the “EC50, HEK-Blue IL18R SEAP reporter” value turned out to be 1.5 pM.

B2: IL-18 polypeptide C183 (SEQ ID NO: 69) (ligand)
chain: YFGKLKSKLSIIRNLNDQVLFIDQGNRPLFEDMTDSDARDNAPRTIFIISGYADSQPRGMAVAISVKCEKISTLSAENKIISFKEMNPPDNIKDTKSDIIFFQRSVPGHDNKMQFESSSYEGYFLAAEKERDLFKLILKKEDELGDRSIMFTVQNED
Turning to B2, the “EC50, HEK-Blue IL18R SEAP reporter” value stood at 0.1 pM.

B3: IL-18 polypeptide SEQ ID NO: 59 (E6K, C38A, K53A) (ligand)
chain: YFGKLKSKLSVIRNLNDQVLFIDQGNRPLFEDMTDSDARDNAPRTIFIISMYADSQPRGMAVTISVKCEKISTLSCENKIISFKEMNPPDNIKDTKSDIIFFQRSVPGHDNKMQFESSSYEGYFLACEKERDLFKLILKKEDELGDRSIMFTVQNED
Turning to B3, the “EC50, HEK-Blue IL18R SEAP reporter” value was determined as 0.268 pM.

B4: IL-18 polypeptide SEQ ID NO: 50 (E06K, K53A, T63A) (ligand)
chain: YFGKLKSKLSVIRNLNDQVLFIDQGNRPLFEDMTDSDCRDNAPRTIFIISMYADSQPRGMAVAISVKCEKISTLSCENKIISFKEMNPPDNIKDTKSDIIFFQRSVPGHDNKMQFESSSYEGYFLACEKERDLFKLILKKEDELGDRSIMFTVQNED
In the case of B4, the “EC50, HEK-Blue IL18R SEAP reporter” value was 1.77 pM.

B5: IL-18 polypeptide SEQ ID NO: 54 (E06K, K53A, C38S, C68S, C76S, C127S, K70C) (ligand)
chain: YFGKLKSKLSVIRNLNDQVLFIDQGNRPLFEDMTDSDSRDNAPRTIFIISMYADSQPRGMAVTISVKSECISTLSSENKIISFKEMNPPDNIKDTKSDIIFFQRSVPGHDNKMQFESSSYEGYFLASEKERDLFKLILKKEDELGDRSIMFTVQNED
On to B5, for which the “EC50, HEK-Blue IL18R SEAP reporter” value worked out at 9.12 pM.

B6: IL-18 polypeptide C176 (ligand)
chain: YFGKLKSKLSIIRNLNDQVLFIDQGNRPLFEDMTDSDARDNAPRTIFIMSMYADSQPRGMAVAISVKCEKISTLSAENKIISFKEMNPPDNIKDTKSDIIFFQRSVPGHDNKMQFESSSYEGYFLAAEKERDLFKLILKKEDELGDRSIMFTVQNED
As for B6, the “EC50, HEK-Blue IL18R SEAP reporter” value is 0.07 pM.

B7: IL-18 polypeptide C177 (ligand)
chain: YFGKLKSKLSIIRNLNDQVLFIDQGNRPLFEDMTDSDARDNAPRTIFIRSMYADSQPRGMAVAISVKCEKISTLSAENKIISFKEMNPPDNIKDTKSDIIFFQRSVPGHDNKMQFESSSYEGYFLAAEKERDLFKLILKKEDELGDRSIMFTVQNED
For B7, the “EC50, HEK-Blue IL18R SEAP reporter” value worked out at 0.04 pM.

B8: IL-18 polypeptide C166 (ligand)
chain: YFGKLESKLSIIRNLNDQVLFIDQGNRPLFEDMTDSDARDNAPRTIFIISMYKDTQPRGMAVTISVKCEKISTLSAENKIISFKEMNPPDNIKDTKSDIIFFQRSVPGHDNKMQFESSSYEGYFLAAEKERDLFKLILKKEDELGDRSIMFTVQNED
Take B8: the “EC50, HEK-Blue IL18R SEAP reporter” value was found to be 4.73 pM.

B9: IL-18 polypeptide SEQ ID NO: 56 (E6K, K53A, C38S, C76S, C127S) (ligand)
chain: YFGKLKSKLSVIRNLNDQVLFIDQGNRPLFEDMTDSDSRDNAPRTIFIISMYADSQPRGMAVTISVKCEKISTLSSENKIISFKEMNPPDNIKDTKSDIIFFQRSVPGHDNKMQFESSSYEGYFLASEKERDLFKLILKKEDELGDRSIMFTVQNED
On to B9, for which the “EC50, HEK-Blue IL18R SEAP reporter” value came out at 3.73 pM.

B10: IL-18 polypeptide C168 (ligand)
chain: YFGKLESKLSIIRNLNDQVLFIDQGNRPLFEDMTDSDARDNAPRTIFIISMYKDSQPRGMAVTISVKCEKISTLSAENKIISFKEMNPPDNIKDTKSDIIFFQRKVPGHDNKMQFESSSYEGYFLAAEKERDLFKLILKKEDELGDRSIMFTVQNED
For B10, the “EC50, HEK-Blue IL18R SEAP reporter” value came to 7.73 pM.

B11: IL-18 polypeptide C181 (ligand)
chain: YFGKLKSKLSIIRNLNDQVLFIDQGNRPLFEDMTDSDARDNAPRTIFIISMYADSQPRGMAVAISVKCEKISTLSAENKIISFKEMNPPDNIKDTKSDIIFFQRSVPGHDNKMQFESSSYEGYFLAAEKERDLFKLILKKEDELGDRSIMFTEQNED
For B11, the “EC50, HEK-Blue IL18R SEAP reporter” value came out at 0.1 pM.

B12: IL-18 polypeptide SEQ ID NO: 42 (E06K, K53A, S55A, T63A) (ligand)
chain: YFGKLKSKLSVIRNLNDQVLFIDQGNRPLFEDMTDSDCRDNAPRTIFIISMYADAQPRGMAVAISVKCEKISTLSCENKIISFKEMNPPDNIKDTKSDIIFFQRSVPGHDNKMQFESSSYEGYFLACEKERDLFKLILKKEDELGDRSIMFTVQNED
B12: the “EC50, HEK-Blue IL18R SEAP reporter” value was found to be 0.79 pM.

B13: IL-18 polypeptide C174 (ligand)
chain: YFGKLKSLLSIIRNLNDQVLFIDQGNRPLFEDMTDSDARDNAPRTIFIISMYADSQPRGMAVAISVKCEKISTLSAENKIISFKEMNPPDNIKDTKSDIIFFQRSVPGHDNKMQFESSSYEGYFLAAEKERDLFKLILKKEDELGDRSIMFTVQNED
With B13, the “EC50, HEK-Blue IL18R SEAP reporter” value was 0.29 pM.

B14: IL-18 polypeptide SEQ ID NO: 34 (E06K, K53A, S55A) (ligand)
chain: YFGKLKSKLSVIRNLNDQVLFIDQGNRPLFEDMTDSDCRDNAPRTIFIISMYADAQPRGMAVTISVKCEKISTLSCENKIISFKEMNPPDNIKDTKSDIIFFQRSVPGHDNKMQFESSSYEGYFLACEKERDLFKLILKKEDELGDRSIMFTVQNED
Turning to B14, the “EC50, HEK-Blue IL18R SEAP reporter” value amounted to 272 pM.

B15: IL-18 polypeptide C164 (ligand)
chain: YFGKLESKLSIIRNLNDQVLFIDQGNRPLFEDMTDSDARDNAPRTIFIISMYKDHQPRGMAVTISVKCEKISTLSAENKIISFKEMNPPDNIKDTKSDIIFFQRSVPGHDNKMQFESSSYEGYFLAAEKERDLFKLILKKEDELGDRSIMFTVQNED
For the molecule B15, the “EC50, HEK-Blue IL18R SEAP reporter” value was 3.14 pM.

B16: IL-18 polypeptide C178 (ligand)
chain: YFGKLKSKLSIIRNLNDQVLFIDQGNRPLFEDMTDSDARDNAPRTIFIISMYADSQPRGMAVAISVKCEKISTLSAENKIISFKEMNPPDNIKDTKSDIIFFRRSVPGHDNKMQFESSSYEGYFLAAEKERDLFKLILKKEDELGDRSIMFTVQNED
Regarding B16, the “EC50, HEK-Blue IL18R SEAP reporter” value stood at 0.26 pM.

B17: IL-18 polypeptide C165 (ligand)
chain: YFGKLESKLSIIRNLNDQVLFIDQGNRPLFEDMTDSDARDNAPRTIFIISMYKDRQPRGMAVTISVKCEKISTLSAENKIISFKEMNPPDNIKDTKSDIIFFQRSVPGHDNKMQFESSSYEGYFLAAEKERDLFKLILKKEDELGDRSIMFTVQNED
With B17, the “EC50, HEK-Blue IL18R SEAP reporter” value is 1.91 pM.

B18: IL-18 polypeptide C167 (ligand)
chain: YFGKLESKLSIIRNLNDQVLFIDQGNRPLFEDMTDSDARDNAPRTIFIISMYKDSQPRGMAVTISVKCEKISTLSAENKIISFKEMNPPDNIKDTKSDIIFFQRIVPGHDNKMQFESSSYEGYFLAAEKERDLFKLILKKEDELGDRSIMFTVQNED
Regarding B18, the “EC50, HEK-Blue IL18R SEAP reporter” value turned out to be 5.37 pM.

B19: IL-18 polypeptide C182 (ligand)
chain: YFGKLKSKLSIIRNLNDQVLFIDQGNRPLFEDMTDSDARDNAPRTIFIISMYADSQPRGMAVAISVKCEKISTLSAENKIISFKEMNPPDNIKDTKSDIIFFQRSVPGHDNKMQFESSSYEGYFLAAEKERDLFKLILKKEDELGDRSIMFTYQNED
For B19, the “EC50, HEK-Blue IL18R SEAP reporter” value came to 0.08 pM.

B20: IL-18 polypeptide SEQ ID NO: 57 (E6K, C38S, K53A) (ligand)
chain: YFGKLKSKLSVIRNLNDQVLFIDQGNRPLFEDMTDSDSRDNAPRTIFIISMYADSQPRGMAVTISVKCEKISTLSCENKIISFKEMNPPDNIKDTKSDIIFFQRSVPGHDNKMQFESSSYEGYFLACEKERDLFKLILKKEDELGDRSIMFTVQNED
Regarding B20, the “EC50, HEK-Blue IL18R SEAP reporter” value was 0.86 pM and 0.53 pM.

B21: IL-18 polypeptide C184 (ligand)
chain: YFGKLRSKLSIIRNLNDQVLFIDQGNRPLFEDMTDSDARDNAPRTIFIISMYADSQPRGMAVAISVKCEKISTLSAENKIISFKEMNPPDNIKDTKSDIIFFQRSVPGHDNKMQFESSSYEGYFLAAEKERDLFKLILKKEDELGDRSIMFTVQNED
For the molecule B21, the “EC50, HEK-Blue IL18R SEAP reporter” value came to 0.04 pM.

B22: IL-18 polypeptide C179 (ligand)
chain: YFGKLKSELSIIRNLNDQVLFIDQGNRPLFEDMTDSDARDNAPRTIFIISMYADSQPRGMAVAISVKCEKISTLSAENKIISFKEMNPPDNIKDTKSDIIFFRRSVPGHDNKMQFESSSYEGYFLAAEKERDLFKLILKKEDELGDRSIMFTVQNED
As to B22, the “EC50, HEK-Blue IL18R SEAP reporter” value was 0.4 pM.
